Among the data in paper PMC11257942 are stoichiometry N values, retold here.

As usually defined, the stoichiometry N is a count of units in the complex or per binding partner.

The target in the experiment is major core protein A10 of vaccinia virus (gene product of A10) (vaccinia virus (VACV) strain Western Reserve (WR)). The experiment in a line: cryo-EM structure.

“major core protein A10 of vaccinia virus (gene product of A10) (natural protein)” gave a stoichiometry N of 3.
